Measurements reported in PMC12500691 (Frontiers in Cellular and Infection Microbiology, 2025).
Where no end group is shown, it is not given here.

What was measured:
SARS-CoV-2 ORF7a = target: T1, SARS-CoV-2 ORF7a (SARS-CoV-2 (Wuhan variant), UniProt P0DTC7 16-96); assay: SPR; conditions: both partners purified
T1 construct: also called open reading frame 7a; accessory protein ORF7a; not shown: twin strep tag, N-terminal, kept
T1 sequence: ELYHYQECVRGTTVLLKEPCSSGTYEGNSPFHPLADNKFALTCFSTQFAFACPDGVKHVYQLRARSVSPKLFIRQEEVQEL

SARS-CoV-2 ORF8 = target: T2, SARS-CoV-2 ORF8 (SARS-CoV-2 (Wuhan variant), UniProt P0DTC8 16-121); assay: negative stain electron microscopy; conditions: both partners purified
T2 construct: also called open reading frame 8; accessory protein ORF8; not shown: twin strep tag, N-terminal, kept
T2 sequence (P0DTC8 16-121): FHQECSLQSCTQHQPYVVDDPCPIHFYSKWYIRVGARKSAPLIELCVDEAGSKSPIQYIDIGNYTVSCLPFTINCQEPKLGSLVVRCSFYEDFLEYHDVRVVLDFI

Binder | Kd (SARS-CoV-2 ORF7a) | stoichiometry N (SARS-CoV-2 ORF8)
LLGDFFRKSKEKIGKEFKRIVQRIKDFLRNLVPRTES (also called synthetic LL-37; human antimicrobial peptide LL-37; source: synthetic peptide, bought: Invivogen) [LL-37] | 138 nM | –
LLGDFFRKSKEKIGKEFKRIVQRIKDFLRNLVPRTES (also: directly conjugated with colloidal gold, also called LL-37 directly conjugated with colloidal gold; source: synthetic peptide, bought: Invivogen; conjugated with colloidal gold) [gold-labeled LL-37] | – | 1
